Laboratory results published in publication PMC11243334, “Synthesis and Evaluation of the First ^68Ga-Labeled C-Terminal Hydroxamate-Derived Gastrin-Releasing Peptide Receptor-Targeted Tracers for Cancer Imaging with Positron Emission Tomography” (Molecules, 2024).
Where two headings read alike, the source gives them in different places.

Experiments:
PC-3 tumor xenografts = test: PET/CT imaging in mice bearing PC-3 tumor xenografts; assay type: in vivo; settings: 1 h post injection, mice
Description: (§1) Imaging and biodistribution studies were performed on male NOD.Cg-Rag1^tm1Mom Il2rg^tm1Wjl/SzJ (NRG) mice following previously published procedures. The experiments were conducted following the guidelines established by the Canadian Council on Animal Care and approved by Animal Ethics Committee of the University of British Columbia. The mice were sedated (2.5% isoflurane in oxygen) and injected with 5 × 10^6 PC-3 cells (100 µL; 1:1 PBS/Matrigel) subcutaneously behind the left shoulder. The tumor-bearing mice were used for PET/CT imaging and biodistribution studies when the tumor grew to 5–8 mm in diameter.
PET/CT imaging experiments were performed on a Siemens (Knoxville, TN, USA) Inveon micro PET/CT scanner. Each tumor-bearing mouse was injected with ~3–6 MBq of ^68Ga-labeled tracer through a lateral caudal tail vein under anaesthesia. At around 50 min post injection, a 10 min CT scan was obtained first for localization and attenuation correction after segmentation for reconstructing the PET image, followed by a 10 min static PET scan.

[1] = Ex vivo biodistribution in PC-3 tumor-bearing mice; settings: male, mouse, iv, total radioactivity, mean ± SD, n = 4; for tissue uptake at 1 h: NOD.Cg-Rag1^tm1Mom Il2rg^tm1Wjl/SzJ (NRG); for tissue to tissue ratio at 1 h: NOD.Cg-Rag1tm1Mom Il2rgtm1Wjl/SzJ (NRG)
Description: Biodistribution studies were conducted for ^68Ga-labeled SB3, LW02075 and LW02050 in PC-3 tumor-bearing mice (n = 4).
as §1
For biodistribution studies, the mice were injected with the radiotracer (~2–4 MBq), as described above. Blocking of [^68Ga]Ga-LW02075 and [^68Ga]Ga-LW02050 was conducted by co-injection with 100 μg nonradioactive Ga-LW02075 and Ga-LW02050, respectively, through a lateral caudal tail vein under anaesthesia. At 1 h post injection, the mice were sedated and euthanized by CO2 inhalation. Blood was collected via cardiac puncture, and organs/tissues of interest were collected, weighed, and counted on a Perkin Elmer (Waltham, MA, USA) Wizard2 2480 automatic gamma counter.

physchem = settings: n-octanol/DPBS, pH 7.4
Description: LogD7.4 values of [^68Ga]Ga-LW02075, [^68Ga]Ga-LW02050, and [^68Ga]Ga-SB3 were measured via the shake flask method. An aliquot of the ^68Ga-labeled tracer (~1.85 MBq) was added to a 15 mL falcon tube containing 3 mL of n-octanol and 3 mL of DPBS (pH 7.4) followed by 1 min of vortex (n = 3). After that, the mixture was centrifuged at 5000 rpm for 10 min, and samples of the n-octanol (1 mL) and buffer (1 mL) layers were collected and counted on a Perkin Elmer (Waltham, MA, USA) Wizard2 2480 automatic gamma counter. The LogD7.4 values of [^68Ga]Ga-LW02075, [^68Ga]Ga-LW02050, and [^68Ga]Ga-SB3 were calculated following the equation: LogD7.4 = log10[(counts in the n-octanol phase)/(counts in the buffer phase)].

Compound: CC(C)C[C@H](NC(=O)[C@H](Cc1c[nH]cn1)NC(=O)CNC(=O)[C@@H](NC(=O)[C@H](C)NC(=O)[C@H](Cc1c[nH]c2ccccc12)NC(=O)[C@H](CCC(N)=O)NC(=O)[C@@H](Cc1ccccc1)NC(=O)COCC(=O)Nc1ccc(CNC(=O)CN2CCN(CC(=O)O)CCN(CC(=O)O)CCN(CC(=O)O)CC2)cc1)C(C)C)C(=O)NO [[^68Ga]Ga-LW02075, [^68Ga]Ga-DOTA-pABzA-DIG-D-Phe-Gln-Trp-Ala-Val-Gly-His-Leu-NHOH, metal not drawn]
- Excretion pathway in PET images (PC-3 tumor xenografts): excreted primarily through the renal pathway
- Pancreas in PET images (PC-3 tumor xenografts): high pancreas uptake
- tissue uptake at 1 h ([1]; PC-3 tumor, 1 h blocked: co-injected with 100 µg nonradioactive Ga-complexed standard, read-out: PC-3 tumor uptake, blocked): 1.83 ± 0.22 %ID/g
- tissue uptake at 1 h ([1]; PC-3 tumor, 1 h post injection, read-out: PC-3 tumor uptake): 3.97 ± 1.71 %ID/g
- tissue uptake at 1 h ([1]; adrenal glands, 1 h blocked: co-injected with 100 µg nonradioactive Ga-complexed standard, read-out: Adrenal glands uptake, blocked): 1.02 ± 0.59 %ID/g
- tissue uptake at 1 h ([1]; adrenal glands, 1 h post injection, read-out: Adrenal glands uptake): 4.42 ± 2.41 %ID/g
- tissue uptake at 1 h ([1]; blood, 1 h blocked: co-injected with 100 µg nonradioactive Ga-complexed standard, read-out: Blood uptake, blocked): 1.15 ± 0.26 %ID/g
- tissue uptake at 1 h ([1]; blood, 1 h post injection, read-out: Blood uptake): 0.76 ± 0.41 %ID/g
- tissue uptake at 1 h ([1]; bone, 1 h blocked: co-injected with 100 µg nonradioactive Ga-complexed standard, read-out: Bone uptake, blocked): 0.21 ± 0.07 %ID/g
- tissue uptake at 1 h ([1]; bone, 1 h post injection, read-out: Bone uptake): 0.2 ± 0.2 %ID/g
- tissue uptake at 1 h ([1]; brain, 1 h blocked: co-injected with 100 µg nonradioactive Ga-complexed standard, read-out: Brain uptake, blocked): 0.03 ± 0.01 %ID/g
- tissue uptake at 1 h ([1]; brain, 1 h post injection, read-out: Brain uptake): 0.03 ± 0.01 %ID/g
- tissue uptake at 1 h ([1]; fat, 1 h blocked: co-injected with 100 µg nonradioactive Ga-complexed standard, read-out: Fat uptake, blocked): 0.12 ± 0.02 %ID/g
- tissue uptake at 1 h ([1]; fat, 1 h post injection, read-out: Fat uptake): 0.08 ± 0.05 %ID/g
- tissue uptake at 1 h ([1]; heart, 1 h blocked: co-injected with 100 µg nonradioactive Ga-complexed standard, read-out: Heart uptake, blocked): 0.34 ± 0.04 %ID/g
- tissue uptake at 1 h ([1]; heart, 1 h post injection, read-out: Heart uptake): 0.24 ± 0.13 %ID/g
- tissue uptake at 1 h ([1]; kidneys, 1 h blocked: co-injected with 100 µg nonradioactive Ga-complexed standard, read-out: Kidneys uptake, blocked): 4.98 ± 1.59 %ID/g
- tissue uptake at 1 h ([1]; kidneys, 1 h post injection, read-out: Kidneys uptake): 3.11 ± 1.18 %ID/g
- tissue uptake at 1 h ([1]; large intestine, 1 h blocked: co-injected with 100 µg nonradioactive Ga-complexed standard, read-out: Large intestine uptake, blocked): 0.4 ± 0.17 %ID/g
- tissue uptake at 1 h ([1]; large intestine, 1 h post injection, read-out: Large intestine uptake): 1.71 ± 0.47 %ID/g
- tissue uptake at 1 h ([1]; liver, 1 h blocked: co-injected with 100 µg nonradioactive Ga-complexed standard, read-out: Liver uptake, blocked): 5.92 ± 1.69 %ID/g
- tissue uptake at 1 h ([1]; liver, 1 h post injection, read-out: Liver uptake): 4.14 ± 1.5 %ID/g
- tissue uptake at 1 h ([1]; lungs, 1 h blocked: co-injected with 100 µg nonradioactive Ga-complexed standard, read-out: Lungs uptake, blocked): 0.94 ± 0.17 %ID/g
- tissue uptake at 1 h ([1]; lungs, 1 h post injection, read-out: Lungs uptake): 0.75 ± 0.41 %ID/g
- tissue uptake at 1 h ([1]; muscle, 1 h blocked: co-injected with 100 µg nonradioactive Ga-complexed standard, read-out: Muscle uptake, blocked): 0.27 ± 0.14 %ID/g
- tissue uptake at 1 h ([1]; muscle, 1 h post injection, read-out: Muscle uptake): 0.21 ± 0.18 %ID/g
- tissue uptake at 1 h ([1]; pancreas, 1 h blocked: co-injected with 100 µg nonradioactive Ga-complexed standard, read-out: Pancreas uptake, blocked): 1.55 ± 0.83 %ID/g
- tissue uptake at 1 h ([1]; pancreas, 1 h post injection, read-out: Pancreas uptake): 17.8 ± 5.24 %ID/g
- tissue uptake at 1 h ([1]; small intestine, 1 h blocked: co-injected with 100 µg nonradioactive Ga-complexed standard, read-out: Small intestine uptake, blocked): 5.62 ± 1.86 %ID/g
- tissue uptake at 1 h ([1]; small intestine, 1 h post injection, read-out: Small intestine uptake): 6.72 ± 1.94 %ID/g
- tissue uptake at 1 h ([1]; spleen, 1 h blocked: co-injected with 100 µg nonradioactive Ga-complexed standard, read-out: Spleen uptake, blocked): 0.35 ± 0.12 %ID/g
- tissue uptake at 1 h ([1]; spleen, 1 h post injection, read-out: Spleen uptake): 0.26 ± 0.13 %ID/g
- tissue uptake at 1 h ([1]; stomach, 1 h blocked: co-injected with 100 µg nonradioactive Ga-complexed standard, read-out: Stomach uptake, blocked): 0.73 ± 0.29 %ID/g
- tissue uptake at 1 h ([1]; stomach, 1 h post injection, read-out: Stomach uptake): 1.23 ± 0.22 %ID/g
- tissue uptake at 1 h ([1]; testes, 1 h blocked: co-injected with 100 µg nonradioactive Ga-complexed standard, read-out: Testes uptake, blocked): 0.3 ± 0.06 %ID/g
- tissue uptake at 1 h ([1]; testes, 1 h post injection, read-out: Testes uptake): 0.17 ± 0.1 %ID/g
- tissue to tissue ratio at 1 h ([1]; tumor and bone, 1 h blocked: co-injected with 100 µg nonradioactive Ga-complexed standard, read-out: Tumor/bone uptake ratio, blocked): 9.3 ± 2.39
- tissue to tissue ratio at 1 h ([1]; tumor and bone, 1 h post injection, read-out: Tumor/bone uptake ratio): 30.6 ± 18.9
- tissue to tissue ratio at 1 h ([1]; tumor and kidney, 1 h blocked: co-injected with 100 µg nonradioactive Ga-complexed standard, read-out: Tumor/kidney uptake ratio, blocked): 0.39 ± 0.09
- tissue to tissue ratio at 1 h ([1]; tumor and kidney, 1 h post injection, read-out: Tumor/kidney uptake ratio): 1.28 ± 0.33
- tissue to tissue ratio at 1 h ([1]; tumor and muscle, 1 h blocked: co-injected with 100 µg nonradioactive Ga-complexed standard, read-out: Tumor/muscle uptake ratio, blocked): 7.85 ± 3.13
- tissue to tissue ratio at 1 h ([1]; tumor and muscle, 1 h post injection, read-out: Tumor/muscle uptake ratio): 24.8 ± 9.99
- tissue to tissue ratio at 1 h ([1]; tumor and pancreas, 1 h blocked: co-injected with 100 µg nonradioactive Ga-complexed standard, read-out: Tumor/pancreas uptake ratio, blocked): 1.46 ± 0.76
- tissue to tissue ratio at 1 h ([1]; tumor and pancreas, 1 h post injection, read-out: Tumor/pancreas uptake ratio): 0.22 ± 0.05
- tissue to tissue ratio at 1 h ([1]; tumor and whole blood, 1 h blocked: co-injected with 100 µg nonradioactive Ga-complexed standard, read-out: Tumor/blood uptake ratio, blocked): 1.65 ± 0.4
- tissue to tissue ratio at 1 h ([1]; tumor and whole blood, 1 h post injection, read-out: Tumor/blood uptake ratio): 5.51 ± 1.49
- logD (physchem): -2.09 ± 0.05
